Measured values: the DeepSol protein solubility set

assay: soluble on expression in E. coli; label from the status in PepcDB or PDB records

Sequence	soluble on expression in E. coli
MGSDKIHHHHHHMINKHVISEKIKKAIVEANIKINPEVEEIIERYEGPFSDIIKENYRVSKEEKLPLCQDTGIVEFFVFIGHEVKLEEPIEETLNRAVGEVYSEYPFRYSVVSDPLFERINTGTNTPAIVHIFQVKGKSLEIRFLVKGGGSENLTVLRMMTPTSDVEKVKEFVIEHIKEHGAKACPPLHVGIGIGGTADKALLLSKLALTKSFKERNKDPKYAGLEKELEKELNFLGIGFQGLGKGITVYSVHIEHFPTHIATLPVAVSVDCYLCRRGKVTFED	not soluble
MKNLAIFDLDNTLINTDSDHAWPQYLIKKGLVDAAETEAQNEKFYRDYQNGCLDIDAFLKLHLAPLARYSKEELAEFHREFMAEYIIPHISPMQRMLVQSHQMAGDETLVISSTNEFIITPVCRLFGIANMIGTQLETGPDGRYTGNYIGTPSLKEGKITRLNQWLAERGETLESYGKTYFYSDSKNDLPLLRLVSEPVAVNPDAELEKEAKEKGWPVLNFK	not soluble
MKSVKEIRKSQVNSMISDQYEIFHVKDMVSPEKTIYHYHDFYEVHCTLKGVATFFLDGHQFDVEAGTVLLIHYHDLHRIIKQSTDDFERMYIFLTPDFLQQRSSKRTNLSACFQHFGQRRSKVIKVDVAKLANYLTPLDHSPLPEEYGADVRYEQQLLDFLIYLNQLVLKEENESQPKQMIENER	not soluble
MGSDKIHHHHHHMEPFSPLNWFRRSSSQASCRTALSSQPSLEAAVNEVAAALAGGSSADLALVFASTHYASDLQRLLPLLQRRLKATHWLGCAGGGVIGTTAKGNASELEKEPALSITMLQLPGAILKPFYLETQSLPDLDGPAQHWQEWVGADPFNARSMLLLVDPSSRSINDLISGLDYAYPTTTKLGGIAGPHNAPHGSLFFDDRVVMGAVGCSFGGDWNLEVVVAQGCKPIGPVFAIEQVQKNILLELSHENQRDSPMACLQRVLDDLSEEEREMVRHSLFLGIERRDLVLAGTGAPQPQGAFLVRNLIGVDPKNGAVAVAEQIRAGQNVQFQLREAEASRQESELLLGAARERNTSPPLFGLLMACLGRGHGLYGVPNGDVHIARKLMAELPIAGVFCNGEIGPAGGVGATHIHGYTACWGLLRHDPSSSEPAKSV	not soluble
MGSDKIHHHHHHMKILYISNFNLPDFQNDMIFHGLRSVFGNDCIDSNEAWYMYEDFRNYWNVRVPENGMSYGRGFTLYGKLPKIDIDRKNIYEKIKDKYFDKIVYGSITRNNMFLDEVISIYEKNNIIMIDGEDNTEINQNFFGKGIYFKRELIYEPTSYLKPIGFCIPNETIVNNISIKEKDYGHVIPGDPETYIYTDEVSYFEDYRKSYFGVTMKKGGWDCLRHYEILMNGCIPYFLNLEQCPKYTMTHFPKNIILDVINKINTESNILNFYNEYVDILLEYTRNKLTTRKVIESIL	not soluble
MNHTADNCIFCKIIDGQILCSKVYEDEHVLAFLDISQVTKGHTLVIPKVHKQDIFALTPEIASHIFSVVPKIANAIKAEFNPVGFNLLNNNGEKAGQTVFHFHLHLIPRYGENDGFGAVWKSHQNEYTMENLQNIASTIANSVK	not soluble
MGSDKIHHHHHHMKKKLALVVVHEIYGVNDHMHHVTDHFTSSHIDVFCPNLLQSQPAFHYSDEEKAYHFFMNHIGFEDGKKQIETFITHLSSRYTHIGLIGFSVGATISWLCSNNPKIDFIIGCYGSRIRDYIHMKPTCATLLIFPEKEASFSVPSFIQSLQQQKNPLLEIYQLHGEHGFLNPYTEKYNGHSTNQAYNLIDSFLVKNTLIKEM	not soluble
VTSPNSTAPTPSLITAPPPSTTEDLRLALRAATLYYLDGMTQAEVATRLGVSRPTAGRLVARARAQGLVRIEVQAPAHLRDALRSDEERALEEKYGLVEAVVVADSVDAAGAIDDHNSFAGVGRAAASLLVRRIREGDTLGFTWGPETVAVAQGLPSGAATCASVVQLDGSVSAINYQTGTEYVLGRCAEQLQANTVRLPVPLYADASTVVSMRGDSVISKALEAGRTAEMMMFGTGAVSTSTTLFEGSFIDTDMLSVLTGLGAVGEVGGRFYRLDGTEVAGPLDERAMSVPLDDIRACEGSILVTGGVAKHQAALGALHGGLAKMLVCDIECARWLLDQ	not soluble
MAHHHHHHMTACSARAQAAAAVHTVVVSLTARREWWKHTCALDSASVFIVHTSDCPPPNRYTARAYPLRCEARLSLHVYANLPAPVSRQCITFLSFRGIYLSPLFCCPPLRHSFHAPAHQFQPPPPSSPFPTLPTRATQHHHHCSHTRVHQICPAVPSLSALSNILTVSAMSAKTAAAPSERSFVDRFVRSHAGAATAAGILEIGFFHPFDTIAKRLMANKGSIMRGSTGETAANLNIIVFKKHADAGFLRKVVYLYPGSLYATVYKVFQRVYKFAGQPLVRDFLSSNYRDGFKRYFGEAHKVMEDATAGCLIGLGEVFLLPLDRLKVLSQTNEAAMRSGLLPLLRQEGFRGMYAGTVVTMCRNAPGSFCLFGGTAFTKGYIFGLSDYRHATLFQNMCASTVGACVAIAISNPMDVVKTRVQQQTAAERCSGMAMATAMLKEEGMLSFFKGLTPKIIASAPKLIFAYTMTEFFFKVMNDSKKH	not soluble
MGSDKIHHHHHHMSDIDFAKKMSFQRHFSRPKTAESEYAIVRQFESDRGRIINSAAIRRLQQKTQVFPLERNAAVRSRLTHSMEVQQVGRYIAKEILHRLQADERLASLGLADRETPFESLVEMACLMHDIGNPPFGHFGESAINQWFRKLLDSHYLDNESPERVDDCKVPTLRMQQDGLDDLRGQIRQDLSHFEGNAQAIRLVHTLLKLNLTYGQVACILKYTRPAYWHGELPADYNYLMKKPGYYLSEEAFVAKLREELDMGEFHRHPLSYIMEAADDVSYCIADLEDAVEKDILTIEELYDRLRENWGTGAEKDIFAKTIERAYKERERFQWRSHDDQFFMNLRVYTVGQMVPHAALRFIDNLPEIYTGSFNQALLEDDSPQNRLLGIFKHVALKHVFNHHEVEQLELQGDRVIRGLLDIYSPLLDMPYQDFSQLVSADTHKRYPIETRLYHKLSSKHCLAYREAVTELDGVAEPERIIREYYYRARLIQDYISGMTDLYAYDEYRMLMAAD	not soluble
SASSQGKNELKLADWMATLPESMHSIPLTNLAIPGSHDSFSFYIDEASPVGPEQPETVQNFVSVFGTVAKKLMRKWLATQTMNFTGQLGAGIRYFDLRISTKPRDPDNELYFAHGLFSAKVNEGLEEINAFLTDHHKEVVFLDFNHFYGMQKYHHEKLVQMLKDIYGNKMCPAIFAQEVSLKYLWEKDYQVLVFYHSPVALEVPFLWPGQMMPAPWANTTDPEKLIQFLQASITERRKKGSFFISQVVLTPKASTVVKGVASGLRETITERALPAMMQWVRTQKPGESGINIVTADFVELGDFISTVIKLNYVFDEGEANT	soluble
MKAYDIEIVNDAAHAGEANHGWCFGLPPGIRPEQWPLDPDTGYPLMHGFTLLLPEDYRVHGPEIVALSFFSLAPDQNDGGPTSVDGIREMLIDPPAQPPAEAELRPFWEAGRNSHPRLHRMEDILGGAYALILLDAAEFSGAPCQPRALPAGNPLLAQTEPPQWLEAGSAASFVPDWAEDDYYLLRALGGRPAAGHQQRYPLRWTARAQDPNAGVVPSEYGDGGYQLPHYWLDGKIERDNYREHPWVEGHLPNHIGGTMRPVQGVPEMSPFYVEFEEYLGGYNFGGGNAQLDFRDMRFDWACG	not soluble
MSLGKIRFGIVGTSNIANIFLRAASRVKDFELVAVYSRNLEKAREFGTLYGASIFFDDLEQMAKSKDIDAVYIASPNALHSKQTITCLKHKKHVLCEKSLASNLKEVKSMIKTAKDNNVLLMEAMRITCVPNFKAVKENLYKIGKIRRFFGSYCQYSSRYDKYKNGIIENAFKKELSNGALMDIGVYCIHPMVNLFGAPKTVKAVSHILQTGVDGEGSAVFQYDDMDAIIQYSKVADSYIPSEIQGEEGSIIIEKLNLFEKAIIKYRDGREEDISIPKEKAEEKPREIEGMYYELVEFISLINNNKIESNINSHENSIIVMEIMDEIRRQSSIVYPADSEGHHHHHH	soluble
GMKVTNYQGATIDPYSKGLGMVPGTSIQLTDAARLEWNLLNEDVSLPAAVLYADRVEHNLKWMQAFVAEYGVKLAPHGKTTMAPQLFRRQLETGAWGITLATAHQVRAAYHGGVSRVLMANQLVGRRNMMMVAELLSDPEFEFFCLVDSVEGVEQLGEFFKSVNKQLQVLLELGVPGGRTGVRDAAQRNAVLEAITRYPDTLKLAGVELYEGVLKEEHEVREFLQSAVAVTRELVEQERFARAPAVLSGAGSAWYDVVAEEFVKASETGKVEVVLRPGCYLTHDVGIYRKAQTDIFARNPVAKKMGEGLLPALQLWAYVQSIPEPDRAIIGLGKRDSAFDAGMPEPARHYRPGNEAPRDIAASEGWEIFGLMDQHAYLRIPAGADLKVGDMIAFDISHPCLTFDKWRQVLVVDPAYRVTEVIETFF	soluble
MLPKTWRENFFVLVREVKNLRATAKKISRHFFRKYEPQPGVFWFVFHLSRSHPFPFLKPLLSGDQARGAATPTPCMRTHLFHRIDPIKSEMGGLSTGYITFVWRGVHPRIGPIAAESLTDGKEEDEALSCGYII	not soluble
MKDDKTILILTAQFGAGHISAAKAVKECIIEKYSNYNVVIQNFINASIPMMNKPMVKLYENNTKYTPGLYNYYYYFKKSFDSRHDLSHKLYTPKLSEYIADINPDLIISTFPLAAACVNNFKIKNPDINIPTLTVITDVVDSMEWVFENTDLYFVPSPEIKNRFFQKGINPDSIKVTGVPLEHHHHHH	not soluble
MAHHHHHHMKNALEQLDRHPLVNFQMDVSPLYSALKNIMQEQIQQAQLQEKISQRLTNLEAEVRSVGVRQKEFEDSLDALTPDAKLQTQQTLKELSTNIKNLTSDMKKVRYDVGEAMRTAVDAKRGIHDLESELLSIRQQQRDFSDLHQEVMREHLKFTAAVKDIRWKIEEQEKLIQEFSQVKPQNTSEVDESKLHGMLSALCERTDQNFRSVEESSFAVDAELTRLRADMKFVQNEVRMLRSELHRGGNHLRRDVGCRRQSPHGGSQGADKSALRNEEHLNGYESASTQGAL	not soluble
MKIVEVKHPLVKHKLGLMREQDISTKRFRELASEVGSLLTYEATADLETEKVTIEGWNGPVEIDQIKGKKITVVPILRAGLGMMDGVLENVPSARISVVGMYRNEETLEPVPYFQKLVSNIDERMALIVDPMLATGGSVIATIDLLKKAGCSSIKVLVLVAAPEGIAALEKAHPDVELYTASIDQGLNEHGYIIPGLGDAGDKIFGTK	soluble
MSEKLQKVLARAGHGSRRELEALIRAGRVSVNGKVAVLGERLEDDNAVVRIDGHVVSVKAQEEVICRVLAYYKPEGELCTRHDPEGRRTVFDRLPKIRGSRWISVGRLDANTSGLLLFTTDGELANRLMHPSRQVEREYLVRVFGDVTEEKVRNLVRGVQLEDGMARFEDVMYAGGEGINHTFYVVINEGRNREVRRLWESQGTTVSRLKRVRYGDIFLDKKLPRGGWMELDLKQVNYLRELVELRPEKETVLNMAPDAATRKRERTRSQKIRRAVRRHEERISATPGRSGKAPARRKPGGESSTRNKVANQQQSSRKPRG	not soluble
MGLLPTDRWLEEDEGDPLRLCARLAPLFGKMPAREIYSYLRLYGMYRSTRQAERLLPEMKERRLWERLGRLYERQRGIWKGPDVPVFLLPADDENRKLVREFQGKGGVAFADKLFFFLLPDHCDEEIAALVAHEYNHVCRLKQLPNEGEDATLLDAVVMEGLAEHAVAETVGAEQCAGWTKYYTDREMERFWRRYIVPNQHLPVSHPHTSRILYGLGWHPKMGGYAVGYAIVRRCLERGCSLAQLMTMEAKDIAELAGFSGKQQGAS	not soluble
MRKIVLFGDSITAGYLDEAVSPVLVDLVKRDIAAMGLEEVAVINAGMPGDTTEDGLKRLNKEVLIEKPDEVVIFFGANDASLDRNITVATFRENLETMIHEIGSEKVILITPPYADSGRRPERPQTRIKELVKVAQEVGAAHNLPVIDLYKAMTVYPGTDEFLQADGLHFSQVGYELLGALIVREIKGRLKPKQA	soluble
